Reference: the supplement of paper PMC10567573

B1: TMEM175 (parent)
chain: SCTIIFLASIFQLAMWTTALLHQA

Variants of: B1
Assay: protein stability index of a GFP-peptide fusion (GPS, HEK-293T) (PSI 1-6); higher = more stable
Settings: c terminus: a fixed tail appended
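Also: lentivirally expressed fusions sorted by FACS into six bins by GFP to DsRed ratio, PSI derived from sequencing read proportions per bin multiplied by bin number.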

Variant | protein stability index
SCTIIFLASIFQLAPWTTALLHQA | 3.25
SCTIIFLASIFQLAFWTTALLHQA | 2.73
SCTIIFLASIFQLAVWTTALLHQA | 3.45
SCTIIFLASIFQLALWTTALLHQA | 2.53
SCTIIFLASIFQLAHWTTALLHQA | 2.49
SCTIIFLASIFQLATWTTALLHQA | 3.17
SCTIIFLASIFQLAWWTTALLHQA | 3.1
SCTIIFLASIFQLADWTTALLHQA | 3.28
SCTIIFLASIFQLANWTTALLHQA | 2.51
SCTIIFLASIFQLAQWTTALLHQA | 2.52
SCTIIFLASIFQLAAWTTALLHQA | 3.24
SCTIIFLASIFQLAEWTTALLHQA | 3.53
SCTIIFLASIFHLAMWTTALLHQA | 3.19
SCTIIFLASIFYLAMWTTALLHQA | 1.89
SCTIIFLASIFPLAMWTTALLHQA | 2.3
SCTIIFLASIFCLAMWTTALLHQA | 3.71
SCTIIFLASIFNLAMWTTALLHQA | 3.72
SCTIIFLASIFGLAMWTTALLHQA | 2.9
SCTIIFLASIFSLAMWTTALLHQA | 2.75
SCTIIFLASIFTLAMWTTALLHQA | 3.43
SCTIIFIASIFQLAMWTTALLHQA | 3.83
SCTIIFEASIFQLAMWTTALLHQA | 2.34
SCTIIFMASIFQLAMWTTALLHQA | 2.79
SCTIIFAASIFQLAMWTTALLHQA | 4.52

Variant | protein stability index
SCTIIFKASIFQLAMWTTALLHQA | 2.48
SCTIIFDASIFQLAMWTTALLHQA | 4.13
SCTIIFRASIFQLAMWTTALLHQA | 3.25
SCTIIFLASIFQLAMMTTALLHQA | 3.11
SCTIIFLASIFQLAMQTTALLHQA | 1.12
SCTIIFLASIFQLAMITTALLHQA | 3.15
SCTIIFLASIFQLAMVTTALLHQA | 3.96
SCTIIFLASIFQLAMATTALLHQA | 3.29
SCTIIFLASIFQLAMGTTALLHQA | 2.72
SCTIIFLASIFQLAMRTTALLHQA | 2.51
SCTIIFLASIFQLAMLTTALLHQA | 2.94
SCTIIFLASIFQLAMHTTALLHQA | 1.8
SCTIIFLASIFQLAMCTTALLHQA | 3.44
SCTHIFLASIFQLAMWTTALLHQA | 3.04
SCTTIFLASIFQLAMWTTALLHQA | 2.72
SCTFIFLASIFQLAMWTTALLHQA | 2.9
SCTPIFLASIFQLAMWTTALLHQA | 4.19
SCTGIFLASIFQLAMWTTALLHQA | 2.7
SCTWIFLASIFQLAMWTTALLHQA | 2.14
SCTNIFLASIFQLAMWTTALLHQA | 3
SCTVIFLASIFQLAMWTTALLHQA | 2.35
SCTDIFLASIFQLAMWTTALLHQA | 3.54
SCTIIFLAAIFQLAMWTTALLHQA | 3.6
SCTIIFLARIFQLAMWTTALLHQA | 2.78

Variant | protein stability index
SCTIIFLAKIFQLAMWTTALLHQA | 3.56
SCTIIFLANIFQLAMWTTALLHQA | 3.06
SCTIIFLAWIFQLAMWTTALLHQA | 4.47
SCTIIFLAGIFQLAMWTTALLHQA | 2.5
SCTIIFLAQIFQLAMWTTALLHQA | 4.14
SCTIIFLATIFQLAMWTTALLHQA | 2.5
SCQIIFLASIFQLAMWTTALLHQA | 3
SCWIIFLASIFQLAMWTTALLHQA | 3.07
SCKIIFLASIFQLAMWTTALLHQA | 2.84
SCTIIFLASIFQLAMWTTALLHQF | 2.62
SCTIIFLASIFQLAMWTTALLHQM | 1.89
SCTIIFLASIFQLAMWTTALLHQK | 2.88
SCTIIFLASIFQLAMWTTALLHQR | 2.43
SCTIIFLASIFQLAMWTTALLHQI | 3.19
SCTIIFLASIFQLAMWTTALLHQE | 3.22
SCTIIFLASIFQLAMWTTALLHQH | 2.67
SCTIIFLASIFQLAMWTTALLHQV | 1.5
SCTIIFLASIFQLAMWTTDLLHQA | 2.3
SCTIIFLASIFQLAMWTTFLLHQA | 3.13
SCTIIFLASIFQLAMWTTPLLHQA | 4.62
SCTIIFLASIFQLAMWTTRLLHQA | 2.19
SCTIIFLASIFQLAMWTTVLLHQA | 2.43
SCTIIFLASIFQLAMWTTWLLHQA | 3.12
SCTIIFLASIFQLAMWTTYLLHQA | 2.1

Variant | protein stability index
SCTIIFLASIFQLAMWHTALLHQA | 4.62
SCTIIFLASIFQLAMWRTALLHQA | 2.01
SCTIIFLASIFQLAMWYTALLHQA | 2.83
SCTIIFLASIFQLAMWNTALLHQA | 3.8
SCTIIFLASIFQLAMWKTALLHQA | 2.94
SCTIIFLASIFQLAMWFTALLHQA | 1.74
SCTIIFLASIFQLAMWQTALLHQA | 2.52
SCTIIFLASIFQLAMWITALLHQA | 3.54
SCTIIFLASIFQLAMWETALLHQA | 2.36
SCTIIFLPSIFQLAMWTTALLHQA | 2.84
SCTIIFLTSIFQLAMWTTALLHQA | 4.12
SCTIIFLESIFQLAMWTTALLHQA | 2.8
SCTIIFLCSIFQLAMWTTALLHQA | 2.98
SCTIIFLISIFQLAMWTTALLHQA | 4.22
SCTIIFLSSIFQLAMWTTALLHQA | 3
SCTIIFLVSIFQLAMWTTALLHQA | 2.62
SCTIIFLNSIFQLAMWTTALLHQA | 4.58
SCTIIFLGSIFQLAMWTTALLHQA | 3.09
SCTIIFLKSIFQLAMWTTALLHQA | 3.08
SCTIIFLASIFQLAMWTTAHLHQA | 3.02
SCTIIFLASIFQLAMWTTAMLHQA | 3.22
SCTIIFLASIFQLAMWTTAILHQA | 3.51
SCTIIFLASIFQLAMWTTAALHQA | 3.09
SCTIIFLASIFQLAMWTTAQLHQA | 3.1

Variant | protein stability index
SCTIIFLASIFQIAMWTTALLHQA | 2.5
SCTIIFLASIFQAAMWTTALLHQA | 2.85
SCTIIFLASIFQVAMWTTALLHQA | 3.31
SCTIIFLASIFQEAMWTTALLHQA | 2.24
SCTIIFLASIFQNAMWTTALLHQA | 3.15
SCTIIFLASIFQYAMWTTALLHQA | 2.81
SCTIIFLASIFQFAMWTTALLHQA | 3.07
SCTIIFLASIFQRAMWTTALLHQA | 1.63
SCTIIFLASIFQQAMWTTALLHQA | 3.08
ACTIIFLASIFQLAMWTTALLHQA | 2.72
ICTIIFLASIFQLAMWTTALLHQA | 3.24
MCTIIFLASIFQLAMWTTALLHQA | 2.14
KCTIIFLASIFQLAMWTTALLHQA | 2.29
ECTIIFLASIFQLAMWTTALLHQA | 1.31
TCTIIFLASIFQLAMWTTALLHQA | 2.86
CCTIIFLASIFQLAMWTTALLHQA | 3.31
NCTIIFLASIFQLAMWTTALLHQA | 2.02
YCTIIFLASIFQLAMWTTALLHQA | 1.75
SCTIIFLASIFQLAMWTTALLHHA | 2.71
SCTIIFLASIFQLAMWTTALLHIA | 2.95
SCTIIFLASIFQLAMWTTALLHTA | 3.34
SCTIIFLASIFQLAMWTTALLHSA | 3.77
SCTIIFLASIFQLAMWTTALLHEA | 2.09
SCTIIFLASIFQLAMWTTALLHMA | 3.84

Variant | protein stability index
SCTIIFLASIFQLAMWTTALLHKA | 3.26
SCTIIFLASIFQLAMWTTALLHFA | 3.89
SCTIIFLASIFQLAMWTTALLHNA | 4.37
SCTIIFLASIFQLAMWTTALCHQA | 3.36
SCTIIFLASIFQLAMWTTALYHQA | 3.71
SCTIIFLASIFQLAMWTTALPHQA | 3.35
SCTIIFLASIFQLAMWTTALVHQA | 3.72
SCTIIFLASIFQLAMWTTALNHQA | 2.05
SCTIIFLASIFQLAMWTTALIHQA | 2.71
SCTIIFLASIFQLAMWTTALTHQA | 3.02
SCTIIFLASIFQLAMWTTALMHQA | 2.73
SCTIIQLASIFQLAMWTTALLHQA | 2.14
SCTIINLASIFQLAMWTTALLHQA | 2.86
SCTIIELASIFQLAMWTTALLHQA | 2.76
SCTIICLASIFQLAMWTTALLHQA | 3.39
SCTIIRLASIFQLAMWTTALLHQA | 2.56
SCTIIPLASIFQLAMWTTALLHQA | 2.59
SCTIIDLASIFQLAMWTTALLHQA | 3.81
SCTIIALASIFQLAMWTTALLHQA | 4.41
SCTIIFLASPFQLAMWTTALLHQA | 2.65
SCTIIFLASTFQLAMWTTALLHQA | 3.72
SCTIIFLASSFQLAMWTTALLHQA | 2.97
SCTIIFLASMFQLAMWTTALLHQA | 3.48
SCTIIFLASCFQLAMWTTALLHQA | 1.64

Variant | protein stability index
SCTIIFLASWFQLAMWTTALLHQA | 2.29
SCTIGFLASIFQLAMWTTALLHQA | 2.33
SCTIMFLASIFQLAMWTTALLHQA | 3.44
SCTIFFLASIFQLAMWTTALLHQA | 2.81
SCTIAFLASIFQLAMWTTALLHQA | 2.65
SCTIPFLASIFQLAMWTTALLHQA | 2.58
SCTITFLASIFQLAMWTTALLHQA | 2.35
SCTIIFLASIFQLNMWTTALLHQA | 2.62
SCTIIFLASIFQLKMWTTALLHQA | 3.08
SCTIIFLASIFQLWMWTTALLHQA | 2.09
SCTIIFLASIFQLIMWTTALLHQA | 3.4
SCTIIFLASIFQLAMWTYALLHQA | 2.68
SCTIIFLASIFQLAMWTDALLHQA | 2.18
SCTIIFLASIFQLAMWTRALLHQA | 2.09
SCTIIFLASIFQLAMWTSALLHQA | 3.06
SCTIIFLASIRQLAMWTTALLHQA | 5.97
SCTIIFLASIPQLAMWTTALLHQA | 2.96
SCTIIFLASIIQLAMWTTALLHQA | 2.56
SCTIIFLASIQQLAMWTTALLHQA | 3.1
SCTIIFLASISQLAMWTTALLHQA | 2.19
SCTIIFLASITQLAMWTTALLHQA | 3.38
SCTIIFLASIMQLAMWTTALLHQA | 1.87
SCTIIFLASIKQLAMWTTALLHQA | 3.11
SCTIIFLASIEQLAMWTTALLHQA | 3.04

Variant | protein stability index
SATIIFLASIFQLAMWTTALLHQA | 3.34
SRTIIFLASIFQLAMWTTALLHQA | 2.3
SHTIIFLASIFQLAMWTTALLHQA | 3.33
SQTIIFLASIFQLAMWTTALLHQA | 2.54
SDTIIFLASIFQLAMWTTALLHQA | 3.24
SPTIIFLASIFQLAMWTTALLHQA | 1.95
SLTIIFLASIFQLAMWTTALLHQA | 2.87
SETIIFLASIFQLAMWTTALLHQA | 2.64
SGTIIFLASIFQLAMWTTALLHQA | 3.98
SNTIIFLASIFQLAMWTTALLHQA | 4.36
SFTIIFLASIFQLAMWTTALLHQA | 2.66
SCTIIFLASIFQLAMWTTALLLQA | 1.86
SCTIIFLASIFQLAMWTTALLAQA | 3.84
SCTIIFLASIFQLAMWTTALLWQA | 3.14
SCTIIFLASIFQLAMWTTALLGQA | 3.04
SCTIIFLASIFQLAMWTTALLIQA | 4.4
SCTIIFLASIFQLAMWTTALLNQA | 2.87
SCTIIFLASIFQLAMWTTALLTQA | 2.65
SCTIIFLASIFQLAMWTTALLVQA | 3.39
SCTIIFLASIFQLAMWTTALLMQA | 2.74
